{"source": "patent US20150105322", "proteins": {"B1": {"name": "tissue plasminogen activator (protein)", "chain": "SYQVICRDEKTQMIYQQHQSWLRPVLRSNRVEYCWCNSGRAQCHSVPVKSCSEPRCFNGGTCQQALYFSDFVCQCPEGFAGKCCEIDTRATCYEDQGISYRGTWSTAESGAECTNWNSSALAQKPYSGRRPDAIRLGLGNHNYCRNPDRDSKPWCYVFKAGKYSSEFCSTPACSEGNSDCYFGNGSAYRGTHSLTESGASCLPWNSMILIGKVYTAQNPSAQALGLGKHNYCRNPDGDAKPWCHVLKNRRLTWEYCDVPSCSTCGLRQYSQPQFRIKGGLFADIASHPWQAAIFAKHRRSPGERFLCGGILISSCWILSAAHCFQERFPPHHLTVILGRTYRVVPGEEEQKFEVEKYIVHKEFDDDTYDNDIALLQLKSDSSRCAQESSVVRTVCLPPADLQLPDWTECELSGYGKHEALSPFYSERLKEAHVRLYPSSRCTSQHLLNRTVTDNMLCAGDTRSGGPQANLHDACQGDSGGPLVCLNDGRMTLVGIISWGLGCGQKDVPGVYTKVTNYLDWIRDNMRP"}}, "key": {"[1]": {"target": "non-N-glycosylated human annexin A2-6×His (N62A) group #1 expressed in Pichia pastoris", "sequence (chain, as listed by the source N62A)": "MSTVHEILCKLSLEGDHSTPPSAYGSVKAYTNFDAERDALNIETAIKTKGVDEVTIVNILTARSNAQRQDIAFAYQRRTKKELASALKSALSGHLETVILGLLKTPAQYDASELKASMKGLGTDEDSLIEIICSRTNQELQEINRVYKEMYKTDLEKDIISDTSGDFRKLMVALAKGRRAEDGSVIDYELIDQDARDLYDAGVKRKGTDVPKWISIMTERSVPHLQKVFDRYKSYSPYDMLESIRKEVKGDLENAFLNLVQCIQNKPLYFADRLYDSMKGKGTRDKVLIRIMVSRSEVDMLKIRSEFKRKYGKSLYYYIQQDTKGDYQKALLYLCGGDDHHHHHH"}, "[2]": {"target": "glycosylated human annexin A2-6×His expressed in Pichia pastoris", "sequence (chain, as listed by the source)": "as the sequence (chain, as listed by the source N62A) above, with A62N counted along it"}, "[3]": {"target": "E. coli expressed human annexin A2, P07355", "sequence (P07355 whole entry)": "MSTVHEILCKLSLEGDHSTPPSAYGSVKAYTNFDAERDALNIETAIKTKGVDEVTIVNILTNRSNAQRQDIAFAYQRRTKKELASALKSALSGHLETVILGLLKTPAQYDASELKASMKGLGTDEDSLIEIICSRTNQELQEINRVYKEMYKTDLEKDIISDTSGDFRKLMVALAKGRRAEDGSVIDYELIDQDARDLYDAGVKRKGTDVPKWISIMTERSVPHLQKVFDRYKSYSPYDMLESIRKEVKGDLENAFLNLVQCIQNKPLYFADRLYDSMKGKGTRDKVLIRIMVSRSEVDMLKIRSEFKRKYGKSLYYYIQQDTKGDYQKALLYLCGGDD"}, "[4]": {"target": "non-N-glycosylated human annexin A2-6×His (N62A) group #2 expressed in Pichia pastoris", "sequence (chain, as listed by the source N62A)": "as the sequence (chain, as listed by the source N62A) above"}}}
{"protein": "B1", "values": [{"measurement": "tPA-mediated plasmin-generation (fluorogenic plasmin substrate D-Val-Leu-Lys-AMC, with N-terminal lysine plasminogen)", "setting": "[1]", "result": "restored the enhancer function completely"}, {"measurement": "tPA-mediated plasmin-generation (fluorogenic plasmin substrate D-Val-Leu-Lys-AMC, with N-terminal lysine plasminogen)", "setting": "[2]", "result": "did not significantly enhance tPA-mediated plasmin-generation"}, {"measurement": "tPA-mediated plasmin-generation (fluorogenic plasmin substrate D-Val-Leu-Lys-AMC, with N-terminal lysine plasminogen)", "setting": "[3]", "result": "comparable to the E. coli expressed human annexin A2 (positive control, labeled as t1+bac-rA2)"}, {"measurement": "tPA-mediated plasmin-generation (fluorogenic plasmin substrate D-Val-Leu-Lys-AMC, with N-terminal lysine plasminogen)", "setting": "[4]", "result": "The enhancer function was partially (about 50%) restored in group #2"}]}
